Where no end group is shown, it is not given here.
How the values were obtained:
[1] = molecular target: T1, Plasmodium falciparum MSP1-19 (C-terminal fragment of merozoite surface protein 1) (Plasmodium falciparum, UniProt Q8I0U8 1607-1699); test: SPR, MSP1-19 immobilised on CM5 chip
T1 construct: domain: MSP1-19; also called Pf MSP1-19; PfMSP1-19
T1 sequence: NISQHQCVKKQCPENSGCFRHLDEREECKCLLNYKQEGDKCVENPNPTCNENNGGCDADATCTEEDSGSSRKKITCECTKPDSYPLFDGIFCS

CD4 = molecular target: T2, CD4 (UniProt P01730 26-396); test: SPR, CD4 immobilised on CM5 chip, equilibrium fit Req=Rmax/(1+(Kd/C))
T2 construct: Bought protein; also called CD4 (Protein Sciences Corp.)

[2] = molecular target: T3, DC-SIGN (DC-specific intercellular adhesion molecule 3-grabbing nonintegrin) (UniProt Q9NNX6 62-404, limits assumed); test: SPR, DC-SIGN immobilised on CM5 chip, equilibrium fit Req=Rmax/(1+(Kd/C))
T3 sequence (looked up): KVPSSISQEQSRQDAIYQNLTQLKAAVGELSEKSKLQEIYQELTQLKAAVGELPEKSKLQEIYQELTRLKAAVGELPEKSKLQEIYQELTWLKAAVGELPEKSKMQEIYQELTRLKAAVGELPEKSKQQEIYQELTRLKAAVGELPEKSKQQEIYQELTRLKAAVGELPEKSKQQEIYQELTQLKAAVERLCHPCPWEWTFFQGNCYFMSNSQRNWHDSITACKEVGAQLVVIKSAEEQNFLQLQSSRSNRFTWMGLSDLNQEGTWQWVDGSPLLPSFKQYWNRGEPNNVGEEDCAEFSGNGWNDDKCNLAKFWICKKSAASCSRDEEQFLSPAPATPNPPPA

B1: GST-Azu 36-128 (GST fused to azurin amino acids 36 to 128) (other)
chain: PGNLPKNVMGHNWVLSTAADMQGVVTDGMASGLDKDYLKPDDSRVIAHTKLIGSGEKDSVTFDVSKLKEGEQYMFFCTFPGHSALMKGTLTLK
notes: The azurin fragment was cloned into the BamHI/EcoRI sites of pGEX-5X; not shown: glutathione S-transferase from the commercial vector pGEX-5X
- Kd [1]: 24.5 nM
- Kd (CD4): 0.34 nM

B2: GST-Azu 36-89 (GST fused to azurin amino acids 36 to 89) (other)
chain: {GST}-PGNLPKNVMGHNWVLSTAADMQGVVTDGMASGLDKDYLKPDDSRVIAHTKLIGS
modifications: also: GST fusion, vector linker residues not given here
notes: also called pGST-azu 36-89 product; not shown: glutathione S-transferase from the commercial vector pGEX-5X
- Kd [1]: 20.9 nM

B3: GST-Azu 88-113 (GST fused to azurin amino acids 88 to 113) (other)
chain: {GST}-GSGEKDSVTFDVSKLKEGEQYMFFCT
modifications: also: GST fusion, vector linker residues not given here
notes: not shown: glutathione S-transferase from the commercial vector pGEX-5X
- Kd [2]: 5.98 nM

— patent US20090208476A1 (published 2009)
